Data reported in PMC3894356.

Tests used:
[1] = molecular target: human C-domain ACE (tACEΔ36-g13sol) R522Q (human)
[2] = molecular target: human C-domain ACE (tACEΔ36-g13sol) R186H (human)
[3] = molecular target: human C-domain ACE (tACEΔ36-g13sol) R522K (human)
[4] = molecular target: human tACEΔ36-g13sol (C-domain of angiotensin-I-converting enzyme) (human)

Km of angiotensin I cleavage, ITC kinetic assay (progress curve), 37 °C, 0 mM NaCl, 50 mM TAPSO pH 7.5, 10 μM ZnSO4 [1]: 0.092 mM
Km of angiotensin I cleavage, ITC kinetic assay (progress curve), 37 °C, 20 mM NaCl, 50 mM TAPSO pH 7.5, 10 μM ZnSO4 [1]: 0.077 mM
Km of angiotensin I cleavage, ITC kinetic assay (progress curve), 37 °C, 0 mM NaCl, 50 mM TAPSO pH 7.5, 10 μM ZnSO4 [2]: 0.085 mM
Km of angiotensin I cleavage, ITC kinetic assay (progress curve), 37 °C, 20 mM NaCl, 50 mM TAPSO pH 7.5, 10 μM ZnSO4 [2]: 0.095 mM
Km of angiotensin I cleavage, ITC kinetic assay (progress curve), 37 °C, 0 mM NaCl, 50 mM TAPSO pH 7.5, 10 μM ZnSO4 [3]: 0.13 mM
Km of angiotensin I cleavage, ITC kinetic assay (progress curve), 37 °C, 20 mM NaCl, 50 mM TAPSO pH 7.5, 10 μM ZnSO4 [3]: 0.119 mM
Km of angiotensin I cleavage, ITC kinetic assay (progress curve), 37 °C, 0 mM NaCl, 50 mM TAPSO pH 7.5, 10 μM ZnSO4 [4]: 0.049 mM
Km of angiotensin I cleavage, ITC kinetic assay (progress curve), 37 °C, 20 mM NaCl, 50 mM TAPSO pH 7.5, 10 μM ZnSO4 [4]: 0.036 mM
Binder: DRVYIHPFHL [Angiotensin I (Asp-Arg-Val-Tyr-Ile-His-Pro-Phe-His-Leu)]
